Experimental data published in patent US20250326839A1 (VIGIL NEUROSCIENCE, published 2025).

T1: human TREM2 (human, UniProt Q9NZC2 19-174, limits assumed)
T1 construct: also called triggering receptor expressed on myeloid cells 2
T1 sequence: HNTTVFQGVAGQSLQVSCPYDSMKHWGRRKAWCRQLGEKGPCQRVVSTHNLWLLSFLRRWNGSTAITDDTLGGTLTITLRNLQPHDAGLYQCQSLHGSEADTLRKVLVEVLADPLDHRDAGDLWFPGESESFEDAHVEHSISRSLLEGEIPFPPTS


Legend:
human TREM2 [1] = target: T1, human TREM2; experiment: 2nd screen, 100 nM
human TREM2 [2] = target: T1, human TREM2; experiment: 1st screen, 110 nM Ab

| Binding Signal (human TREM2 [1]) | Binding Signal (human TREM2 [2]) | Binder |
| --- | --- | --- |
| 0.56 fold over 6E7 parental antibody | 0.2 fold over 6E7 parental antibody | V6 (antibody, V domains shown, also called 6E7 variant V6) VH: EVQLVQSGAEVKKPGESLKISCKGSGYSFTSMWIAWVRQMPGKGLEWMGIIYPGDSDTRYSPSFQGQVTISADKSISTAYLQWSSLKASDTAMYFCARQRTFYYDSSDYFDYWGQGTLVTVSS VL: DIQMTQSPSSVSASVGDRVTITCRASQGISSWLAWYQQKPGKAPKLLIYAASSLQNGVPSRFSGSGSGTDFTLTISSLQPEDFATYFCQQADSFPRTFGQGTKLEIK |
| 0.48 fold over 6E7 parental antibody | 0.59 fold over 6E7 parental antibody | V19 (antibody, V domains shown, also called 6E7 variant V19) VH: EVQLVQSGAEVKKPGESLKISCKGSGYSFTSSWIAWVRQMPGKGLEWMGIIYPGDSDTRYSPSFQGQVTISADKSISTAYLQWSSLKASDTAMYFCARQRTFYYDSSDYFDYWGQGTLVTVSS VL: DIQMTQSPSSVSASVGDRVTITCRASQGISSWLAWYQQKPGKAPKLLIYAASSLQNGVPSRFSGSGSGTDFTLTISSLQPEDFATYFCQQADSFPRTFGQGTKLEIK |
| 0.32 fold over 6E7 parental antibody | 0.11 fold over 6E7 parental antibody | V7 (antibody, V domains shown, also called 6E7 variant V7) VH: EVQLVQSGAEVKKPGESLKISCKGSGYSFTSEWIAWVRQMPGKGLEWMGIIYPGDSDTRYSPSFQGQVTISADKSISTAYLQWSSLKASDTAMYFCARQRTFYYDSSDYFDYWGQGTLVTVSS VL: DIQMTQSPSSVSASVGDRVTITCRASQGISSWLAWYQQKPGKAPKLLIYAASSLQNGVPSRFSGSGSGTDFTLTISSLQPEDFATYFCQQADSFPRTFGQGTKLEIK |
| 0.54 fold over 6E7 parental antibody | 0.67 fold over 6E7 parental antibody | V9 (antibody, V domains shown, also called 6E7 variant V9; LV-16/HV-201) VH: EVQLVQSGAEVKKPGESLKISCKGSGYSFTSYWIAWVRQMPGKGLEWMGIIYPGDSDTRYSPSFQGQVTISADKSISTAYLQWSSLKASDTAMYFCARQRGFYYDSSDYFDYWGQGTLVTVSS VL: DIQMTQSPSSVSASVGDRVTITCRASQGISSWLAWYQQKPGKAPKLLIYAASSLQNGVPSRFSGSGSGTDFTLTISSLQPEDFATYFCQQADSFPRTFGQGTKLEIK |
| 0.77 fold over 6E7 parental antibody | 0.28 fold over 6E7 parental antibody | V8 (antibody, V domains shown, also called 6E7 variant V8) VH: EVQLVQSGAEVKKPGESLKISCKGSGYSFTSYWIAWVRQMPGKGLEWMGIIYPGDSDTKYSPSFQGQVTISADKSISTAYLQWSSLKASDTAMYFCARQRTFYYDSSDYFDYWGQGTLVTVSS VL: DIQMTQSPSSVSASVGDRVTITCRASQGISSWLAWYQQKPGKAPKLLIYAASSLQNGVPSRFSGSGSGTDFTLTISSLQPEDFATYFCQQADSFPRTFGQGTKLEIK |
| 0.42 fold over 6E7 parental antibody | 0.17 fold over 6E7 parental antibody | V18 (antibody, V domains shown, also called 6E7 variant V18) VH: EVQLVQSGAEVKKPGESLKISCKGSGYSFTSYHIAWVRQMPGKGLEWMGIIYPGDSDTRYSPSFQGQVTISADKSISTAYLQWSSLKASDTAMYFCARQRTFYYDSSDYFDYWGQGTLVTVSS VL: DIQMTQSPSSVSASVGDRVTITCRASQGISSWLAWYQQKPGKAPKLLIYAASSLQNGVPSRFSGSGSGTDFTLTISSLQPEDFATYFCQQADSFPRTFGQGTKLEIK |
| 0.42 fold over 6E7 parental antibody | 0.79 fold over 6E7 parental antibody | V11 (antibody, V domains shown, also called 6E7 variant V11) VH: EVQLVQSGAEVKKPGESLKISCKGSGYSFTSYWIAWVRQMPGKGLEWMGIIYPGDSDTRYSPSFQGQVTISADKSISTAYLQWSSLKASDTAMYFCARQRTFYYDSSDYFDYWGQGTLVTVSS VL: DIQMTQSPSSVSASVGDRVTITCRASQGISSWLAWYQQKPGKAPKLLIYAASSLQNGVPSRFSGSGSGTDFTLTISSLQPEDFATYFCQQAASFPRTFGQGTKLEIK |
| 0.7 fold over 6E7 parental antibody | 0.76 fold over 6E7 parental antibody | V10 (antibody, V domains shown, also called 6E7 variant V10; LV-201/HV-15) VH: EVQLVQSGAEVKKPGESLKISCKGSGYSFTSYWIAWVRQMPGKGLEWMGIIYPGDSDTRYSPSFQGQVTISADKSISTAYLQWSSLKASDTAMYFCARQRTFYYDSSDYFDYWGQGTLVTVSS VL: DIQMTQSPSSVSASVGDRVTITCRASQGISSWLAWYQQKPGKAPKLLIYSASSLQNGVPSRFSGSGSGTDFTLTISSLQPEDFATYFCQQADSFPRTFGQGTKLEIK |
